Measurements published in publication PMC8529501 (iScience, 2021).

molecular target: T1, SIRT2 (Homo sapiens, UniProt Q8IXJ6); assay: ITC; also label-free MST (Kd […]) and native PAGE; type: binding; conditions: not given
T1 construct: GST-tagged SIRT2 expressed in E. coli BL21
T1 sequence (Q8IXJ6 2-389): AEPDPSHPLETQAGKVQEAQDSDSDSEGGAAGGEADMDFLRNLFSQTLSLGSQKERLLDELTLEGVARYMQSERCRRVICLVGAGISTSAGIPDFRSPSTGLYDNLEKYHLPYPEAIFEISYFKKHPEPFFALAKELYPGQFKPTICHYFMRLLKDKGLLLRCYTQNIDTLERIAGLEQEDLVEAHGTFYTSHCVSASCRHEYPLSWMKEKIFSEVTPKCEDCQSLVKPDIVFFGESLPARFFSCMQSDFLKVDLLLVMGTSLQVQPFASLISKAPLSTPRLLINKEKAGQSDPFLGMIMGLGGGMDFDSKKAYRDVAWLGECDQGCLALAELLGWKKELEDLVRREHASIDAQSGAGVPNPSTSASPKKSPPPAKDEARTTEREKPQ

**Q.** How did the Kd turn out when `CO[C@H]1C[C@@H]2CC[C@@H](C)[C@@](O)(O2)C(=O)C(=O)N2CCCC[C@H]2C(=O)O[C@H]([C@H](C)C[C@@H]2CC[C@@H](O)[C@H](OC)C2)CC(=O)[C@H](C)/C=C(\C)[C@@H](O)[C@@H](OC)C(=O)[C@H](C)C[C@H](C)/C=C/C=C/C=C/1C` [Rapamycin] was run?
**A.** 9.5 nM

molecular target: mTOR (FRB)-N-Luciferase reporter; assay: split-luciferase complementation (dual element luciferase assay); parameters: unit not given here; conditions: HEK293T cells, rapamycin treatment; parent: est. 13; read off a plot

**Q.** FKBP12-C-Luc (from UniProt P62942) K45R was tested. Which response did it give?
**A.** 13

**Q.** FKBP12-C-Luc (from UniProt P62942) K48R was tested. Which response did it give?
**A.** 16

**Q.** How did the response turn out when FKBP12-C-Luc (from UniProt P62942) K48Q was run?
**A.** 5

**Q.** Which response does the source give for FKBP12-C-Luc (from UniProt P62942) K53Q here?
**A.** 10

**Q.** For FKBP12-C-Luc (from UniProt P62942) K53R, which response is on record?
**A.** 16

**Q.** How did the response turn out when “FKBP12-C-Luc (from UniProt P62942) E108A” was run?
**A.** 5.5

**Q.** Which response does the source give for FKBP12-C-Luc (from UniProt P62942) K45Q here?
**A.** 1.9
